Experiments:
[1] = target: APC segment 3 (amino acids 1098-1696), wild type, with N-terminal VSV-G tag and C-terminal P53-derived tag (Vesicular Stomatitis Virus; human) (UniProt P25054); assay: HTS-PTT ELISA, 0.1 ul of translation mix per well
[2] = target: APC segment 3 (amino acids 1098-1696), wild type, with N-terminal VSV-G tag and C-terminal P53-derived tag (Vesicular Stomatitis Virus; human) (UniProt P25054); assay: HTS-PTT ELISA on NeutrAvidin plate, HRP chemiluminescence
[3] = target: APC segment 3 (amino acids 1098-1696), wild type, with N-terminal VSV-G tag and C-terminal P53-derived tag (Vesicular Stomatitis Virus; human) (UniProt P25054); assay: HTS-PTT ELISA on NeutrAvidin plate, alkaline phosphatase chemiluminescence

Chain of UniProt P25054 (P25054 other isoform, or with tags, fused parts or gaps limits assumed): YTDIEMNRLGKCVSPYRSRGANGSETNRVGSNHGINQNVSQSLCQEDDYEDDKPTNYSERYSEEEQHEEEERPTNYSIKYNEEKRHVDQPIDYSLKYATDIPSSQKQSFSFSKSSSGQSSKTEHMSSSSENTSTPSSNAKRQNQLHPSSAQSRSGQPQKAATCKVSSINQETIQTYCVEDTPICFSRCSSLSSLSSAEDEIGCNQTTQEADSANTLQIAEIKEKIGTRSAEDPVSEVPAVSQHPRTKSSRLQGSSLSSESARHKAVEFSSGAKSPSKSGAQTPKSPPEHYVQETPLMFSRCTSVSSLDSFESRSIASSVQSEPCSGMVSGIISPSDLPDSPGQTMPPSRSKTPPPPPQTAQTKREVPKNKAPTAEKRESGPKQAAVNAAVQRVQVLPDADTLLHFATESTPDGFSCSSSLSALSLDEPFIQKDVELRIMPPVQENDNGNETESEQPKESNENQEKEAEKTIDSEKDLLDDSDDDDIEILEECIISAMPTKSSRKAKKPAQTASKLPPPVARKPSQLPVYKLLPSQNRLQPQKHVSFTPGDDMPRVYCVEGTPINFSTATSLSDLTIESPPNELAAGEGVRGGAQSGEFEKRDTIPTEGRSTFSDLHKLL

| Substance | signal-to-noise ratio [1] | signal over background (fold over background) [2] | signal over background (fold over background) [3] |
| --- | --- | --- | --- |
| anti-VSV-G-HRP (Roche Applied Sciences) (antibody) | 10 | 400 | – |
| anti-p53-alkaline phosphatase (Santa Cruz Biotechnology) (antibody) | 30 | – | 100 |

— patent US7312060
